Laboratory results as given in paper PMC6771872, “Fast‐acting insulin aspart in people with type 2 diabetes: Earlier onset and greater initial exposure and glucose‐lowering effect compared with insulin aspart” (Diabetes, Obesity & Metabolism, 2019).

Key:
Type in all cases: in vivo, human
[1] = tested on: people with type 2 diabetes; assay: Safety assessments (adverse events, hypoglycaemic episodes, injection site reactions); conditions: single s.c. 0.3 U/kg
Excerpt: Safety assessments included adverse events (AEs), hypoglycaemic episodes, injection site reactions, laboratory safety measures, physical examination, vital signs and ECG. AEs were defined as treatment‐emergent if they had onset within the period from time of trial product administration until 7 days later. Hypoglycaemic episodes were classified according to the American Diabetes Association12 and in addition defined as “confirmed” if documented by PG <3.1 mmol/L with or without symptoms consistent with hypoglycaemia. Hypoglycaemic episodes were defined as treatment‐emergent if they had onset between the time of trial product administration and the subsequent administration of any insulin; however, these should occur no longer than 16 hours after trial product administration.

[2] = tested on: people with type 2 diabetes; assay: Euglycaemic glucose clamp, glucose infusion rate (glucose-lowering effect); conditions: people with T2D, single s.c. 0.3 U/kg, n = 56 faster aspart, 59 IAsp
Description: Participants arrived at the clinical site at 4:30 PM the day before dosing, were served a standardized meal and started fasting from 7:00 PM. In order to assess the pharmacodynamics of faster aspart and IAsp, a euglycaemic glucose clamp was conducted with an overnight run‐in period starting at 10:00 PM. Participants received a variable intravenous infusion of human insulin [40 IU Actrapid® 100 IU/mL (Novo Nordisk) in 99.6 mL saline] or 20% glucose to obtain the plasma glucose (PG) target concentration of 5.0 mmol/L. The trial product was administered between 8:00 AM and 10:00 AM the next morning after PG had stabilized for ≥1 hour with minimum insulin infusion and no glucose infusion. At the time of dosing, any infusion of intravenous insulin was terminated. After PG had declined by 0.3 mmol/L (defined as onset of action), a variable intravenous glucose infusion was initiated to keep PG at the target throughout the clamp. The clamp continued for up to 12 hours after dosing, but was terminated if PG was consistently ≥11.1 mmol/L, with no requirement for intravenous glucose infusion during the previous 30 minutes. The individual clamps were performed with similar high quality across both treatments (Figure S1 and Table S1 in Appendix S1).11
Measurement of PG concentrations during the glucose clamp was performed with a SuperGL 2 glucose analyser (Dr Müller Gerätebau GmbH, Freital, Germany) using an electrochemical method.
(§1) All pharmacokinetic and glucose infusion rate (GIR) endpoints to assess onset of exposure and glucose‐lowering effect, initial IAsp exposure and glucose‐lowering effect, offset of exposure and glucose‐lowering effect, and overall exposure and glucose‐lowering effect were defined and derived as previously described.5 In a blinded review of pharmacokinetic profiles, it was observed that selected profiles had pre‐dose values above the LLOQ and stayed above the LLOQ for the entire sampling period. It was therefore decided to baseline‐correct these profiles using a baseline value derived as the mean of all pre‐dose samples. After baseline correction, all pre‐dose values and negative values were set to zero. All pharmacokinetic endpoints for the baseline‐corrected profiles were derived in the same way as those for the non‐baseline‐corrected profiles.

[3] = Serum IAsp pharmacokinetics after single subcutaneous dose (IAsp-specific ELISA); conditions: people with T2D, single s.c. 0.3 U/kg, 59 IAsp
Excerpt: At the two dosing visits, participants received single dosing of 0.3 U/kg faster aspart (100 U/mL; Novo Nordisk, Bagsværd, Denmark) or IAsp (NovoRapid® 100 U/mL; Novo Nordisk) in a randomized sequence. Both trial products were provided in blinded PDS290 pen‐injector prefilled pens (Novo Nordisk) and administered subcutaneously in a lifted skin fold of the lower abdominal wall above the inguinal area. Use of current insulin was terminated in due time to allow washout before faster aspart and IAsp administration.
Blood sampling for pharmacokinetics was performed frequently from 2 minutes prior to dosing until 12 hours post‐dose (Table S2 in Appendix S1).
A validated IAsp‐specific enzyme‐linked immunosorbent assay with a lower limit of quantification (LLOQ) of 10 pmol/L was used to measure free serum IAsp concentrations following polyethylene glycol precipitation.
as §1

[4] = tested on: people with type 2 diabetes; assay: Suppression of serum free fatty acid (FFA) concentration after dosing; conditions: people with T2D, single s.c. 0.3 U/kg
Description: Serum free fatty acid (FFA) concentrations were measured using a Wako NEFA assay (Wako Diagnostics, Mountain View, California), performed on a Roche Cobas C501 analyser (Roche Diagnostics GmbH, Mannheim, Germany).
The suppression of serum FFA concentration initially after dosing was determined by calculating the area over the baseline‐corrected serum FFA concentration‐time curve during the first hour (ΔAOCFFA,0‐1 h) and the first 2 hours (ΔAOCFFA,0‐2 h) as well as the time to reach 50% of the maximum FFA decline in the initial part of the FFA profile (t50% max FFA decline). Furthermore, the minimum FFA concentration (FFAmin) was derived.
Statistical analyses were performed using SAS version 9.4 (SAS Institute, Cary, North Carolina). All endpoints were compared between faster aspart and IAsp using a linear mixed model, with treatment and period as fixed effects and participant as a random effect. The P value for the two‐sided test of no treatment difference using a significance level of 5% was estimated from the model. For FFA endpoints, baseline FFA was included as a covariate. […] Least squares means for each treatment, treatment ratios and 95% confidence intervals (CIs) were calculated on the original scale. All other endpoints were analysed on a linear scale: least squares means for each treatment, treatment differences and 95% CIs were estimated. Treatment ratios and 95% CIs were determined according to Fieller's method.14

[5] = euglycaemic clamp, LS mean ± SE
[6] = LS mean ± SE, n = 56 faster aspart, 58 IAsp

insulin aspart [IAsp]
Injection site reactions or treatment-emergent hypoglycaemic episodes ([1]; people with T2D): no injection site reactions or treatment‐emergent hypoglycaemic episodes were reported
Tolerability ([1]; people with T2D): well tolerated
Number of treatment-emergent AEs ([1]; safety analysis set 61 participants with T2D, onset within 7 days of dosing): 11
tLate 50% GIRmax (time to 50% of maximum GIR in the late part of the GIR profile) ([2]; offset of glucose-lowering effect, LS mean): 297.7 min
AUCGIR,0-t (total glucose-lowering effect) ([2]; clamp up to 12 hours, LS mean): 904 mg/kg
Onset of action (PG decline by 0.3 mmol/L) ([2]; euglycaemic clamp target 5.0 mmol/L, LS mean ± SE): 31.3 ± 1.4 min
tEarly 50% GIRmax (time to 50% of maximum GIR in the initial part of the GIR profile) [2, 5]: 51.1 ± 2.3 min
tGIRmax (time to maximum glucose infusion rate) [2, 5]: 155.6 ± 8.7 min
AUCGIR,0-30min LS Mean ([2]; euglycaemic clamp, LS mean): 7.0 mg/kg
AUCGIR,0-1h LS Mean ([2]; euglycaemic clamp, LS mean): 67 mg/kg
AUCGIR,0-1.5h LS Mean ([2]; euglycaemic clamp, LS mean): 127 mg/kg
AUCGIR,0-2h LS Mean ([2]; euglycaemic clamp, LS mean): 210 mg/kg
AUCGIR,2-t (partial area under the GIR profile from 2 hours) ([2]; LS mean): 681 mg/kg
GIRmax (maximum glucose infusion rate) ([2]; LS mean): 3.9 mg/kg/min
tLate 50% Cmax (time to 50% of maximum IAsp concentration in the late part of the PK profile) ([3]; offset of exposure, LS mean, n = 56 faster aspart): 237.8 min
Onset of appearance ([3]; free serum IAsp by ELISA, LS mean ± SE, n = 56 faster aspart): 4.4 ± 0.3 min
AUCIAsp,0-t (total IAsp exposure) ([3]; sampling until 12 hours, LS mean, n = 56 faster aspart): 1.403 nM·h
tmax (time to maximum IAsp concentration) ([3]; LS mean ± SE, n = 55 faster aspart): 1.45 ± 0.0867 h
tEarly 50% Cmax (time to 50% of maximum IAsp concentration in the initial part of the PK profile) ([3]; LS mean ± SE, n = 56 faster aspart): 27.9 ± 1.0 min
AUCIAsp,0-15min LS Mean ([3]; LS mean, n = 56 faster aspart): 0.0074 nM·h
AUCIAsp,0-1h LS Mean ([3]; LS mean, n = 56 faster aspart): 0.189 nM·h
AUCIAsp,0-1.5h LS Mean ([3]; LS mean, n = 56 faster aspart): 0.355 nM·h
AUCIAsp,0-2h LS Mean ([3]; LS mean, n = 56 faster aspart): 0.516 nM·h
AUCIAsp,2-t (partial area under the serum IAsp profile from 2 hours) ([3]; LS mean, n = 56 faster aspart): 0.841 nM·h
Cmax (maximum IAsp concentration) ([3]; LS mean, n = 56 faster aspart): 0.384 nM
AUCIAsp,0-30min LS Mean ([3]; primary endpoint, LS mean, n = 56 faster aspart): 0.042 nM·h
t50% max FFA decline (time to reach 50% of the maximum decline in FFA) [4, 6]: 50.0 ± 2.3 min
ΔAOCFFA,0-1 h (area over the baseline-corrected FFA curve, first hour) [4, 6]: 0.09 ± 0.01 mmol·h/L
ΔAOCFFA,0-2 h (area over the baseline-corrected FFA curve, first 2 hours) [4, 6]: 0.38 ± 0.02 mmol·h/L
Mean minimum FFA concentration (FFAmin) ([4]; mean ± spread as printed): 0.08 ± 0.05 mmol/L
